Conditions: Aspergillus oryzae (strain ATCC 42149 / RIB 40), DSC, reversible: yes, whole UniProt chain shown; for denaturant m value / denaturant midpoint (higher = more stable) / unfolding free energy: Urea; for Tm / heat capacity change of unfolding / unfolding enthalpy (calorimetric): Thermal
[1] = pH 2.8, 27.75 °C, glycine 30 mM

B1: Guanyl-specific ribonuclease T1 wild type, P00651 (protein)
chain: MMYSKLLTLTTLLLPTALALPSLVERACDYTCGSNCYSSSDVSTAQAAGYQLHEDGETVGSNSYPHKYNNYEGFDFSVSSPYYEWPILSSGDVYSGGSPGADRVVFNENNQLAGVITHTGASGNNFVECT
For B1, which denaturant m value (pH 2.8, 17.1 °C, glycine 30 mM) is on record?
Its denaturant m value is 2.44 kcal/mol/M.

And the “denaturant midpoint (higher = more stable)” value (“denaturant midpoint” below) (pH 2.8, 17.1 °C, glycine 30 mM)?
The value was 2.25 M.

And the unfolding free energy (pH 2.8, 17.1 °C, glycine 30 mM)?
The unfolding free energy was 5.41 kcal/mol.

And the denaturant m value (pH 2.8, 21.1 °C, glycine 30 mM)?
The denaturant m value was 2.43 kcal/mol/M.

What about the “denaturant midpoint” value (pH 2.8, 21.1 °C, glycine 30 mM) of the same protein?
The value was 2.02 M.

And the unfolding free energy (pH 2.8, 21.1 °C, glycine 30 mM)?
The unfolding free energy was 4.85 kcal/mol.

What about the denaturant m value (pH 2.8, 24.9 °C, glycine 30 mM) of the same protein?
The denaturant m value was 2.33 kcal/mol/M.

And the “denaturant midpoint” value (pH 2.8, 24.9 °C, glycine 30 mM)?
Its value is 1.8 M.

What about the unfolding free energy (pH 2.8, 24.9 °C, glycine 30 mM) of the same protein?
The unfolding free energy was 4.33 kcal/mol.

What about the denaturant m value [1] of the same protein?
The denaturant m value was 2.45 kcal/mol/M.

What about the “denaturant midpoint” value [1] of the same protein?
Its value is 1.44 M.

And the unfolding free energy [1]?
Its unfolding free energy is 3.48 kcal/mol.

And the Tm (pH 2.8, glycine 30 mM)?
The Tm was 42.6 °C.

And the “heat capacity change of unfolding” value (pH 2.8, glycine 30 mM)?
Its value is 2.2 kcal/mol/K.

And the “unfolding enthalpy (calorimetric)” value (pH 2.8, glycine 30 mM)?
Its value is 95 kcal/mol.

What about the denaturant m value (pH 5.95, 19.05 °C, MES 30 mM) of the same protein?
The denaturant m value was 1.19 kcal/mol/M.

What about the “denaturant midpoint” value (pH 5.95, 19.05 °C, MES 30 mM) of the same protein?
The value was 6.64 M.

And the unfolding free energy (pH 5.95, 19.05 °C, MES 30 mM)?
The unfolding free energy was 7.94 kcal/mol.

What about the denaturant m value (pH 5.95, 22 °C, MES 30 mM) of the same protein?
Its denaturant m value is 1.19 kcal/mol/M.

What about the “denaturant midpoint” value (pH 5.95, 22 °C, MES 30 mM) of the same protein?
The value was 6.32 M.

What about the unfolding free energy (pH 5.95, 22 °C, MES 30 mM) of the same protein?
Its unfolding free energy is 7.55 kcal/mol.

What about the denaturant m value (pH 5.95, 29.1 °C, MES 30 mM) of the same protein?
The denaturant m value was 1.18 kcal/mol/M.

And the “denaturant midpoint” value (pH 5.95, 29.1 °C, MES 30 mM)?
The value was 5.45 M.

What about the unfolding free energy (pH 5.95, 29.1 °C, MES 30 mM) of the same protein?
Its unfolding free energy is 6.51 kcal/mol.

What about the Tm (pH 5.95, MES 30 mM) of the same protein?
The Tm was 52.8 °C.

What about the “heat capacity change of unfolding” value (pH 5.95, MES 30 mM) of the same protein?
The value was 1.49 kcal/mol/K.

And the “unfolding enthalpy (calorimetric)” value (pH 5.95, MES 30 mM)?
Its value is 104 kcal/mol.

And the denaturant m value (pH 7, 19.2 °C, MOPS 30 mM)?
Its denaturant m value is 1.21 kcal/mol/M.

And the “denaturant midpoint” value (pH 7, 19.2 °C, MOPS 30 mM)?
The value was 5.26 M.

What about the unfolding free energy (pH 7, 19.2 °C, MOPS 30 mM) of the same protein?
The unfolding free energy was 6.29 kcal/mol.

And the denaturant m value (pH 7, 21.1 °C, MOPS 30 mM)?
Its denaturant m value is 1.1 kcal/mol/M.

And the “denaturant midpoint” value (pH 7, 21.1 °C, MOPS 30 mM)?
The value was 4.98 M.

And the unfolding free energy (pH 7, 21.1 °C, MOPS 30 mM)?
Its unfolding free energy is 5.95 kcal/mol.

What about the denaturant m value (pH 7, 23.05 °C, MOPS 30 mM) of the same protein?
The denaturant m value was 1.2 kcal/mol/M.

And the “denaturant midpoint” value (pH 7, 23.05 °C, MOPS 30 mM)?
The value was 4.86 M.

And the unfolding free energy (pH 7, 23.05 °C, MOPS 30 mM)?
Its unfolding free energy is 5.81 kcal/mol.

And the denaturant m value (pH 7, 25 °C, MOPS 30 mM)?
Its denaturant m value is 1.2 kcal/mol/M.

And the “denaturant midpoint” value (pH 7, 25 °C, MOPS 30 mM)?
The value was 4.58 M.

And the unfolding free energy (pH 7, 25 °C, MOPS 30 mM)?
Its unfolding free energy is 5.47 kcal/mol.

And the denaturant m value (pH 7, 27 °C, MOPS 30 mM)?
Its denaturant m value is 1.2 kcal/mol/M.

What about the “denaturant midpoint” value (pH 7, 27 °C, MOPS 30 mM) of the same protein?
The value was 4.14 M.

What about the unfolding free energy (pH 7, 27 °C, MOPS 30 mM) of the same protein?
Its unfolding free energy is 4.95 kcal/mol.

What about the denaturant m value (pH 7, 29 °C, MOPS 30 mM) of the same protein?
Its denaturant m value is 1.27 kcal/mol/M.

What about the “denaturant midpoint” value (pH 7, 29 °C, MOPS 30 mM) of the same protein?
The value was 3.93 M.

And the unfolding free energy (pH 7, 29 °C, MOPS 30 mM)?
Its unfolding free energy is 4.7 kcal/mol.

What about the Tm (pH 7, MOPS 30 mM) of the same protein?
The Tm was 48.2 °C.

And the “heat capacity change of unfolding” value (pH 7, MOPS 30 mM)?
The value was 1.72 kcal/mol/K.

What about the “unfolding enthalpy (calorimetric)” value (pH 7, MOPS 30 mM) of the same protein?
The value was 95.2 kcal/mol.

What about the denaturant m value (pH 7.9, 19.05 °C, HEPPSO 30 mM) of the same protein?
Its denaturant m value is 1.11 kcal/mol/M.

And the “denaturant midpoint” value (pH 7.9, 19.05 °C, HEPPSO 30 mM)?
The value was 4.19 M.

And the unfolding free energy (pH 7.9, 19.05 °C, HEPPSO 30 mM)?
The unfolding free energy was 5.01 kcal/mol.

And the denaturant m value (pH 7.9, 22 °C, HEPPSO 30 mM)?
Its denaturant m value is 1.25 kcal/mol/M.

What about the “denaturant midpoint” value (pH 7.9, 22 °C, HEPPSO 30 mM) of the same protein?
The value was 3.91 M.

And the unfolding free energy (pH 7.9, 22 °C, HEPPSO 30 mM)?
The unfolding free energy was 4.67 kcal/mol.

And the denaturant m value (pH 7.9, 25 °C, HEPPSO 30 mM)?
The denaturant m value was 1.28 kcal/mol/M.

And the “denaturant midpoint” value (pH 7.9, 25 °C, HEPPSO 30 mM)?
Its value is 3.44 M.

And the unfolding free energy (pH 7.9, 25 °C, HEPPSO 30 mM)?
The unfolding free energy was 4.11 kcal/mol.

And the denaturant m value (pH 7.9, 28.95 °C, HEPPSO 30 mM)?
The denaturant m value was 1.19 kcal/mol/M.

And the “denaturant midpoint” value (pH 7.9, 28.95 °C, HEPPSO 30 mM)?
Its value is 2.95 M.

What about the unfolding free energy (pH 7.9, 28.95 °C, HEPPSO 30 mM) of the same protein?
The unfolding free energy was 3.52 kcal/mol.

And the Tm (pH 7.9, HEPPSO 30 mM)?
Its Tm is 43.3 °C.

What about the “heat capacity change of unfolding” value (pH 7.9, HEPPSO 30 mM) of the same protein?
Its value is 1.65 kcal/mol/K.

What about the “unfolding enthalpy (calorimetric)” value (pH 7.9, HEPPSO 30 mM) of the same protein?
The value was 87.1 kcal/mol.

From FireProtDB (doi:10.1021/bi00432a026)
